In patent US20230414619:

Molecular target: Flag-tagged METTL3, Q86U44
Sequence (Q86U44 whole entry): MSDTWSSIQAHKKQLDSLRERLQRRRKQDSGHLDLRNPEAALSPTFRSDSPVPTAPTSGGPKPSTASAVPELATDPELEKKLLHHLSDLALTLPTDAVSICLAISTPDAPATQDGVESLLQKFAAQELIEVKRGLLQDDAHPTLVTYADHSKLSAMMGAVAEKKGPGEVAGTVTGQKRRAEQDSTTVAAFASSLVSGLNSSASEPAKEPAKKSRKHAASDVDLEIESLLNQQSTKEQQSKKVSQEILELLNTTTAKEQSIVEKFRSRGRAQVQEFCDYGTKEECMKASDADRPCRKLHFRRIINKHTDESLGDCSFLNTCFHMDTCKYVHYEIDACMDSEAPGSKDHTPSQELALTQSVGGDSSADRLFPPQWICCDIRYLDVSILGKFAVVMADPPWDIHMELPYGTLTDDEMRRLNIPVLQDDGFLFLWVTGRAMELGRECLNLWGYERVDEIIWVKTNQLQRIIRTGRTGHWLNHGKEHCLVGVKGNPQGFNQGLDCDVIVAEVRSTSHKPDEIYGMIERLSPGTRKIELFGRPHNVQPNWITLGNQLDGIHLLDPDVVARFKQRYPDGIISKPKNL

B1: HA-tagged G9a (protein)
chain: MAAAAGAAAAAAAEGEAPAEMGALLLEKETRGATERVHGSLGDTPRSEETLPKATPDSLEPAGPSSPASVTVTVGDEGADTPVGATPLIGDESENLEGDGDLRGGRILLGHATKSFPSSPSKGGSCPSRAKMSMTGAGKSPPSVQSLAMRLLSMPGAQGAAAAGSEPPPATTSPEGQPKVHRARKTMSKPGNGQPPVPEKRPPEIQHFRMSDDVHSLGKVTSDLAKRRKLNSGGGLSEELGSARRSGEVTLTKGDPGSLEEWETVVGDDFSLYYDSYSVDERVDSDSKSEVEALTEQLSEEEEEEEEEEEEEEEEEEEEEEEEDEESGNQSDRSGSSGRRKAKKKWRKDSPWVKPSRKRRKREPPRAKEPRGVNGVGSSGPSEYMEVPLGSLELPSEGTLSPNHAGVSNDTSSLETERGFEELPLCSCRMEAPKIDRISERAGHKCMATESVDGELSGCNAAILKRETMRPSSRVALMVLCETHRARMVKHHCCPGCGYFCTAGTFLECHPDFRVAHRFHKACVSQLNGMVFCPHCGEDASEAQEVTIPRGDGVTPPAGTAAPAPPPLSQDVPGRADTSQPSARMRGHGEPRRPPCDPLADTIDSSGPSLTLPNGGCLSAVGLPLGPGREALEKALVIQESERRKKLRFHPRQLYLSVKQGELQKVILMLLDNLDPNFQSDQQSKRTPLHAAAQKGSVEICHVLLQAGANINAVDKQQRTPLMEAVVNNHLEVARYMVQRGGCVYSKEEDGSTCLHHAAKIGNLEMVSLLLSTGQVDVNAQDSGGWTPIIWAAEHKHIEVIRMLLTRGADVTLTDNEENICLHWASFTGSAAIAEVLLNARCDLHAVNYHGDTPLHIAARESYHDCVLLFLSRGANPELRNKEGDTAWDLTPERSDVWFALQLNRKLRLGVGNRAIRTEKIICRDVARGYENVPIPCVNGVDGEPCPEDYKYISENCETSTMNIDRNITHLQHCTCVDDCSSSNCLCGQLSIRCWYDKDGRLLQEFNKIEPPLIFECNQACSCWRNCKNRVVQSGIKVRLQLYRTAKMGWGVRALQTIPQGTFICEYVGELISDAEADVREDDSYLFDLDNKDGEVYCIDARYYGNISRFINHLCDPNIIPVRVFMLHQDLRFPRIAFFSSRDIRTGEELGFDYGDRFWDIKSKYFTCQCGSEKCKHSAEAIALEQSRLARLDPHPELLPELGSLPPVNT
- LC-MS/MS of tryptic digests of Flag-METTL3: mono- or di-methyl-lysine (Kme) sites: four mono- or di-methyl-lysine (Kme) sites in the C-terminus of METTL3
- lysine methylation of immunoprecipitated Flag-METTL3, immunoblotting with an anti-mono- or di-methylysine antibody: METTL3 was methylated
